Experiments:
Tau Isoform 352 [1] = target: T1, Tau Isoform 352 (human, UniProt P10636 2-758); assay: not named in the sentence (summary of antibody generation)
T1 construct: Obtained as a lyophilized purified isoform; also called Tau 352; tau352

Tau Isoform 383 [2] = target: T2, Tau Isoform 383 (human, UniProt P10636 2-758); assay: ELISA, 100 ng or 50 ng coated tau isoform, antibody 1:1,000 and 1:10,000
T2 construct: Obtained as a lyophilized purified isoform; also called Tau 383; tau383
Experimental: More specifically, the 4G11 mAb was tested in an ELISA against 100 ng of each of the Tau isoforms at a 1:1,000 antibody dilution (FIG. 6A); against 100 ng of each of the Tau isoforms at a 1:10,000 antibody dilution (FIG. 6B); against 50 ng of each of the Tau isoforms at a 1:1,000 antibody dilution (FIG. 6C); and against 50 ng of each of the Tau isoforms at a 1:10,000 antibody dilution (FIG. 6D). […] The highest binding levels were found using 100 ng of the tau isoform with an antibody dilution of 1:1,000.
Antibody 4G11 was tested in an ELISA against 100 ng and 50 ng of the six human Tau isoform using antibodies dilutions of 1:1,000 and 1:10,000. Both 4G11 stored at −80° C. as well as a lyophilized form stored at ambient temperature were compared in this assay and the results are provided in FIGS. 6A-D (the left bar for each isoform are the results of the antibody stored at −80° C. and the right bar for each isoform is the lyophilized form, stored at 25° C.

Tau Isoform 410 = target: T3, Tau Isoform 410 (human, UniProt P10636 2-758); assay: screening of hybridoma cell lines; assay not given
T3 construct: Obtained as a lyophilized purified isoform; also called Tau 410; tau410

Tau Isoform 412 = target: T4, Tau Isoform 412 (human, UniProt P10636 2-758); assay: screening of hybridoma cell lines; assay not given
T4 construct: Obtained as a lyophilized purified isoform; also called tau412

Tau Isoform 441 = target: T5, Tau Isoform 441 (human, UniProt P10636 2-758); assay: screening of hybridoma cell lines; assay not given
T5 construct: Obtained as a lyophilized purified isoform; also called tau441

Tau Isoform 381 = target: T6, Tau Isoform 381 (human, UniProt P10636 2-758); assay: screening of hybridoma cell lines; assay not given
T6 construct: Obtained as a lyophilized purified isoform; also called tau381

Tau Isoform 383 [3] = target: T2, Tau Isoform 383; assay: screening of hybridoma cell lines; assay not given
Tau Isoform 352 [4] = target: T1, Tau Isoform 352; assay: screening of hybridoma cell lines; assay not given

Measured: binding result

T6 sequence (P10636 other isoform, or with tags, fused parts or gaps limits assumed): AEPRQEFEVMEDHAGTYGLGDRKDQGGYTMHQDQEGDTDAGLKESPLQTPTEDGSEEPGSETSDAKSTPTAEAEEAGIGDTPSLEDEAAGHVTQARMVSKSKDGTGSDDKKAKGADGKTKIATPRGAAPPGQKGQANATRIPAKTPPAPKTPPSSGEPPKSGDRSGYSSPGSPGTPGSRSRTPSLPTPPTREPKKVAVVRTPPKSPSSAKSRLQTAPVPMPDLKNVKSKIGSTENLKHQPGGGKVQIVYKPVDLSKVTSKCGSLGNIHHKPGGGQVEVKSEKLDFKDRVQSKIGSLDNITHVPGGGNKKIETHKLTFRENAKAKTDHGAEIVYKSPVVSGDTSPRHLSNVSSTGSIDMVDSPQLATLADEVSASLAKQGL
T5 sequence (P10636 other isoform, or with tags, fused parts or gaps limits assumed): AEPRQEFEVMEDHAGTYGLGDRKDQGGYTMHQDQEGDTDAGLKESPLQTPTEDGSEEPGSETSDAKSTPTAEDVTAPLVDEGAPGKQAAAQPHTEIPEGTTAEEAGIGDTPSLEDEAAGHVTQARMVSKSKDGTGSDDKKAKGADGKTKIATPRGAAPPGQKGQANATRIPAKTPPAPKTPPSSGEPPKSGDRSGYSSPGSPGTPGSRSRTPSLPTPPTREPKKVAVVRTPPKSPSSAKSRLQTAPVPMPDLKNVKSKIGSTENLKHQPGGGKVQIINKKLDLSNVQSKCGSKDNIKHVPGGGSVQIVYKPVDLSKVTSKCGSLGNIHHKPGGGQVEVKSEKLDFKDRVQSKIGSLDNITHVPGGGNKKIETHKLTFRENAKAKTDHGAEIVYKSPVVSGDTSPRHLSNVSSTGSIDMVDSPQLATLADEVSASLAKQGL
T4 sequence (P10636 other isoform, or with tags, fused parts or gaps limits assumed): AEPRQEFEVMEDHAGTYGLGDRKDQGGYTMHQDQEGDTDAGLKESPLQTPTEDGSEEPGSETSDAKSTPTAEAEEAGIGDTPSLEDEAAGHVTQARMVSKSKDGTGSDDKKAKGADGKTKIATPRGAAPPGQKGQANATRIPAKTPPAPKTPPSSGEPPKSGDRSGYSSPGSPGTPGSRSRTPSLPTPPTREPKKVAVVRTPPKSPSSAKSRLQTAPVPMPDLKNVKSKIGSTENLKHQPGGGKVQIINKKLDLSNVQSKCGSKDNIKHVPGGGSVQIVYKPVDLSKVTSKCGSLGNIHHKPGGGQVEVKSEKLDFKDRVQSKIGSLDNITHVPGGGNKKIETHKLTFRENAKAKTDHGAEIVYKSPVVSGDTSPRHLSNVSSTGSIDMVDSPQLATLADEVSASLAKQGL
T2 sequence (P10636 other isoform, or with tags, fused parts or gaps limits assumed): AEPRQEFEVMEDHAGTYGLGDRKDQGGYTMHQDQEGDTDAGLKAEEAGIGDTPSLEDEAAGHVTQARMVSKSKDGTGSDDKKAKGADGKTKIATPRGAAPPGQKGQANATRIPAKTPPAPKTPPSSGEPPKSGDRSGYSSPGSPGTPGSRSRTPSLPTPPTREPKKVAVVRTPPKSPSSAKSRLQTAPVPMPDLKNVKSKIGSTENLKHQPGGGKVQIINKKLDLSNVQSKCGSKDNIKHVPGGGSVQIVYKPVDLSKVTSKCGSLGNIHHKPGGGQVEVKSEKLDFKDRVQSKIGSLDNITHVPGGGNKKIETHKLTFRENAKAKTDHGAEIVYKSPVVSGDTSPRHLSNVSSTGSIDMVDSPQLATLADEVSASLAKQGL
T1 sequence (P10636 other isoform, or with tags, fused parts or gaps limits assumed): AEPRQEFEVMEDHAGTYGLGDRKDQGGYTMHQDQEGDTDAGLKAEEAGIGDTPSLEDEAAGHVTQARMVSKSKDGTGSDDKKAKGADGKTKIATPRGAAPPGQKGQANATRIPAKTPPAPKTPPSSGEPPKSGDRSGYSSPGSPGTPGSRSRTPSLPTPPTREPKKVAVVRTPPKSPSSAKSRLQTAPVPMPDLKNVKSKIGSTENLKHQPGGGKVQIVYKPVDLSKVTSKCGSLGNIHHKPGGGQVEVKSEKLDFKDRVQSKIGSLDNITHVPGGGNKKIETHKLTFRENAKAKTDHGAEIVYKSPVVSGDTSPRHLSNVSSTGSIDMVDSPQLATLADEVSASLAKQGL
T3 sequence (P10636 other isoform, or with tags, fused parts or gaps limits assumed): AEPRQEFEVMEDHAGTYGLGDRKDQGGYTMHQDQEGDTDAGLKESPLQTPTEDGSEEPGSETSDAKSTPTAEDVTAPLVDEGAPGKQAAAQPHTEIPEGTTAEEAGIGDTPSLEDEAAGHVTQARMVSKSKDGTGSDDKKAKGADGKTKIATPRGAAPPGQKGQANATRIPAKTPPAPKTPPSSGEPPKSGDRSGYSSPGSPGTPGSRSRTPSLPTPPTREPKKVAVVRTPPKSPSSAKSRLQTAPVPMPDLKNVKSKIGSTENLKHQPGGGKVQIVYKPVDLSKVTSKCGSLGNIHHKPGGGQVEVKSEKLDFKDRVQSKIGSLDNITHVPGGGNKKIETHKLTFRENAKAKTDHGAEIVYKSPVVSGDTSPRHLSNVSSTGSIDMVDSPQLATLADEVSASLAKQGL

B1: monoclonal antibody 4G11 (antibody, IgA, V domains shown)
VH: EVQLVESGGGLVQPKGSLKLSCAASGFTFNIYAMNWVRQAPGKGLEWVARIRSKSNNYATYYADSMKDRFTISRDDSQSMLYLQMNNLKTEDTAMYYCVRHGNYYFDYWGQGTTLTVSS
VL: ENVLTQSPAIMAASLGQKVTMTCSADSSVSSSYLNWYQQKSGASPKPLIHRTSNLASGVPARFSGSGSGTSYSLTISSVEAEDDATYYCQQWSGYPFIFTFGSGTKLEIK
notes: also called Tau 4G11; mAb 4G11
binds: Tau Isoform 352 [1] | Tau Isoform 383 [2] | Tau Isoform 410 | Tau Isoform 412 | Tau Isoform 441 | Tau Isoform 381

B2: monoclonal antibody 1A6 (antibody, IgM, V domains shown)
VH: DVQLVESGGGLVQPGGSRKLSCAASGFTFSSFGMHWVRQVPEKGLEWVAYISSGSSTIYYADTVKGRFTISRDNPKNTLFLQMTSLRSEDTAMYYCASNQSPTGFAYWGQGTLVTVSA
VL: DVVMTQTPLSLPVSLGDQASISCRSSQSLVHSNGNTYLHWYLQKPGQSPKLLIYKVSNRFSGVPDRFSGSGSGTDFTLKISRVEAEDLGVYFCSQSTHVPLTFGAGTKLELK
notes: Mouse hybridoma antibody (h1A6, ATCC PTA-122038), from a mouse immunized with tau 352; also called Tau 1A6; mAb 1A6
binds: Tau Isoform 410 | Tau Isoform 412 | Tau Isoform 383 [3] | Tau Isoform 352 [4] | Tau Isoform 441 | Tau Isoform 381

From patent US20190211086A1 (RPEPTIDE, published 2019)
